B1: ADD1 (parent)
chain: GEGTGSPPKWQIGEQEFEALMRML

Variants of: B1
Assay: protein stability index of a GFP-peptide fusion (GPS, HEK-293T) (PSI 1-6); higher = more stable
Settings: c terminus: a fixed tail appended
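Further: lentivirally expressed fusions sorted by FACS into six bins by GFP to DsRed ratio, PSI derived from sequencing read proportions per bin multiplied by bin number.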

Protein stability index of substitutions, site by site:
G3: D 3.19 | C 3.6 | V 3.41 | N 3.51 | P 3.14 | F 2.89 | Y 3.63
L24: T 3.8 | P 4.38 | H 4.32
G13: R 2.99 | A 3.85 | T 2.74 | W 3.37 | K 3.21 | V 2.5 | L 2.84 | N 2.78
E16: F 1.59 | W 2.54 | K 2.53 | Q 2.37 | N 3.1 | D 3.52 | C 2.75 | A 2.33 | G 2.5
P7: Y 2.14 | F 3.61 | W 2.08 | I 2.46 | D 3.09 | E 3.04 | Q 3.04
Q15: F 2.33 | N 3.03 | K 2.47 | H 2.83 | C 2.9
R22: I 2.49 | Y 2.37 | E 3.39 | V 2.14 | F 2.79 | N 3.62
E2: F 2.73 | R 3.16 | G 3.06 | K 2.3 | M 2.91 | V 3.94 | Y 2.28
L20: Y 3.97 | T 3.63 | Q 5.25 | E 4.77 | R 4.19 | K 4.4
P8: Q 2.79 | I 2.31 | F 2.36 | N 3.24 | S 2.82 | Y 2.49
A19: E 4.04 | P 3.25 | S 2.94 | K 2.69 | L 2.85 | W 2.31 | H 3.65 | T 3.25
E14: H 3.09 | K 3.61 | M 2.72 | C 2 | S 2.94 | T 2.79
F17: G 4.19 | S 4.28 | D 4.82 | C 3.33 | R 3.83 | Q 4.76 | V 3.84 | H 4.32 | W 3.6 | N 3.55 | P 4.79 | K 3.88
G1: W 2.54 | N 3.51 | H 3.1 | V 2.49 | L 3.32 | Y 3.13 | I 2.92 | A 3.28 | Q 3.24 | M 2.71
Q11: N 3.53 | E 3.24 | Y 2.57 | I 2.97 | D 3.82 | P 3.33 | F 3.22 | C 2.76
I12: G 4.08 | W 2.81 | A 3.9 | P 3.72 | N 3.55 | Q 4.11 | E 4.45
S6: F 1.88 | G 2.55 | R 3.75 | A 2.87 | H 2.76 | D 3.25
M21: I 2.99 | L 2.82 | K 3.49 | W 2.83 | P 4.2 | F 3.47 | E 4.16 | D 4.41 | Y 3.09
E18: L 2.41 | F 1.93 | W 1.85 | R 2.07 | S 3.17 | D 3.69 | K 2.9
G5: D 3.15 | W 2.21 | H 3.12 | I 2.74 | M 2.4 | F 2.46 | T 3 | P 2.83 | Q 3.49 | Y 3.02
T4: C 2.94 | R 3.44 | D 2.96 | A 3.63 | H 3.19
W10: G 3.97 | T 3.42 | P 3.81 | Y 3.14 | H 3.99
K9: L 2.34 | I 2.58 | V 2.49 | Q 3.25 | S 3.48 | A 3.76 | H 3.08
M23: S 4.68 | Q 4.44 | I 2.16
